Test results from article PMC9482650, “Quantitative fragmentomics allow affinity mapping of interactomes” (Nature Communications, 2022).

Columns and labels:
Test in all cases: holdup assay
Set-up in all cases: key: below the threshold = too weak to quantify, mostly under pKd 3.1 to 4
PTPN13_1, Q12923 = target: T1, PTPN13_1, Q12923
T1 sequence (Q12923 1088-1188, limits assumed, looked up): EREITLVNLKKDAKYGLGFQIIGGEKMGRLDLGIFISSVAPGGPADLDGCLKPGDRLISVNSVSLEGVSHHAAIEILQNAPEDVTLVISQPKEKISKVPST

DLG4_3, P78352 = target: DLG4_3, P78352
SNTB1, Q13884 = target: T2, SNTB1, Q13884
T2 sequence (Q13884 107-205, limits assumed, looked up): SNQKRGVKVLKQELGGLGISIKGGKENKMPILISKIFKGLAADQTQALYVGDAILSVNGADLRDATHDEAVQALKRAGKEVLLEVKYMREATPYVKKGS

FRMPD2_2, Q68DX3 = target: FRMPD2_2, Q68DX3
ARHGAP21, Q5T5U3 = target: T3, ARHGAP21, Q5T5U3
T3 sequence (Q5T5U3 45-169, limits assumed, looked up): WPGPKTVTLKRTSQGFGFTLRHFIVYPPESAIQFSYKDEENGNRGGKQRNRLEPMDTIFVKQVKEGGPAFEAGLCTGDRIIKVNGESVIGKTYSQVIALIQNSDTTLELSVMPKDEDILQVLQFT

GRID2IP_1, A4D2P6 = target: GRID2IP_1, A4D2P6
MPDZ_5, O75970 = target: T4, MPDZ_5, O75970
T4 sequence (O75970 695-796, limits assumed, looked up): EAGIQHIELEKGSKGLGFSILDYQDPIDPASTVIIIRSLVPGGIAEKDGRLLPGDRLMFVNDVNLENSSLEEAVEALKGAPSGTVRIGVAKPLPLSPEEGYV

Inadl_10, Q8NI35 = target: Inadl_10, Q8NI35
PARD3B_1, Q8TEW8 = target: T5, PARD3B_1, Q8TEW8
T5 sequence (Q8TEW8 196-299, limits assumed, looked up): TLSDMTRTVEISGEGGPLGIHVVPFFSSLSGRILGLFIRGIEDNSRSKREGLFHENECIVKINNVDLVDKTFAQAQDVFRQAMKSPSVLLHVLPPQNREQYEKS

GRIP2_3, Q9C0E4 = target: GRIP2_3, Q9C0E4
DLG2_3, Q15700 = target: DLG2_3, Q15700
LRRC7, Q96NW7 = target: T6, LRRC7, Q96NW7
T6 sequence (Q96NW7 1440-1537, limits assumed, looked up): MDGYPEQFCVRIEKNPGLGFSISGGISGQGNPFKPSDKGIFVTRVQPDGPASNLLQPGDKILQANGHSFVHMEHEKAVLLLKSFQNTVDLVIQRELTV

DLG2_2, Q15700 = target: DLG2_2, Q15700
GRIP2_7, Q9C0E4 = target: GRIP2_7, Q9C0E4
GOPC, Q9HD26 = target: GOPC, Q9HD26
SIPA1L2, Q9P2F8 = target: T7, SIPA1L2, Q9P2F8
T7 sequence (Q9P2F8 945-1036, limits assumed, looked up): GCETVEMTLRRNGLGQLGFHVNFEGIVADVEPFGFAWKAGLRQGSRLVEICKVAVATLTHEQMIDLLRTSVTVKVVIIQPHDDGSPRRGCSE

DLG1_3, Q12959 = target: DLG1_3, Q12959
LIN7A, O14910 = target: T8, LIN7A, O14910
T8 sequence (O14910 103-200, limits assumed, looked up): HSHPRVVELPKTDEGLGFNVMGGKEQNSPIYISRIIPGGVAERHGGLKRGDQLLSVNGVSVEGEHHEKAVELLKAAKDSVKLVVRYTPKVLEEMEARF

SYNJ2BP, P57105 = target: T9, SYNJ2BP, P57105
T9 sequence (P57105 8-110, limits assumed, looked up): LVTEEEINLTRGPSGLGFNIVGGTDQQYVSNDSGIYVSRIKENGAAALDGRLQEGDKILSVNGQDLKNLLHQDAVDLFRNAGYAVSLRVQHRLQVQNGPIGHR

RAPGEF6, Q8TEU7 = target: T10, RAPGEF6, Q8TEU7
T10 sequence (Q8TEU7 525-625, limits assumed, looked up): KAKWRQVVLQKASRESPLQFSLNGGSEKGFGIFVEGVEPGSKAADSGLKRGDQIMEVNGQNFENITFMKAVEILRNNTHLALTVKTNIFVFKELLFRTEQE

GIPC2, Q8TF65 = target: GIPC2, Q8TF65
DLG1_2, Q12959 = target: DLG1_2, Q12959
HTRA1, Q92743 = target: HTRA1, Q92743
PCLO, Q9Y6V0 = target: T11, PCLO, Q9Y6V0
T11 sequence (Q9Y6V0 4491-4600, limits assumed, looked up): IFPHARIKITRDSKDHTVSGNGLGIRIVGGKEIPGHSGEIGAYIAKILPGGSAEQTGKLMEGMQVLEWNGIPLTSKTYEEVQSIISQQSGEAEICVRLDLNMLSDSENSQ

PDZD7_3, Q9H5P4 = target: T12, PDZD7_3, Q9H5P4
T12 sequence (Q9H5P4 857-944, limits assumed, looked up): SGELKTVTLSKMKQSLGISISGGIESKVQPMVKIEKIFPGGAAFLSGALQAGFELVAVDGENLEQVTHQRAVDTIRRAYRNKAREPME

[1] = plain residues with an end cap or a label only (N-terminal biotin on a linker: ttds)
[2] = plain residues with an end cap or a label only (N-terminal biotin on a linker: ado-ado)

DLG4_3, P78352, sequence (P78352 306-403): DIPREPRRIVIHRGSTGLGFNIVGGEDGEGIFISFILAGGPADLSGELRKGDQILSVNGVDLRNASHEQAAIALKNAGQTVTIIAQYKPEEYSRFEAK
GRID2IP_1, A4D2P6, sequence (A4D2P6 1-87): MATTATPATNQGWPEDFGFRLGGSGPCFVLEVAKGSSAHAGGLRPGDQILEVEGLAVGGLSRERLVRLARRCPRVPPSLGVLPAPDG
Inadl_10, Q8NI35, sequence (Q8NI35 1673-1763): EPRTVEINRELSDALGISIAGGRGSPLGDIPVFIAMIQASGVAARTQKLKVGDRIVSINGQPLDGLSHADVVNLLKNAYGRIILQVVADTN
HTRA1, Q92743, sequence (Q92743 360-477): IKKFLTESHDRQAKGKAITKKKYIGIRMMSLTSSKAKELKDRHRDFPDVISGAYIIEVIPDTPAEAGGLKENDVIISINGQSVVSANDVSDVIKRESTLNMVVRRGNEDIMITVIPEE
GRIP2_7, Q9C0E4, sequence (Q9C0E4 934-1023): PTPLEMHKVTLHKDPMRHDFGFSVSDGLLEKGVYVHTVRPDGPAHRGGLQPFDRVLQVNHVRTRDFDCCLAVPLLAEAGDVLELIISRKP
GIPC2, Q8TF65, sequence (Q8TF65 112-203): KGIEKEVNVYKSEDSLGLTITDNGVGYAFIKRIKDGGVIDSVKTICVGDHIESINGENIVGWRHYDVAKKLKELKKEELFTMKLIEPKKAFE
GRIP2_3, Q9C0E4, sequence (Q9C0E4 238-339): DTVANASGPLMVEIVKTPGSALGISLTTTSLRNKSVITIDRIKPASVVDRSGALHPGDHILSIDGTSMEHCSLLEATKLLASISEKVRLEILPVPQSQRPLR
DLG1_3, Q12959, sequence (Q12959 457-571): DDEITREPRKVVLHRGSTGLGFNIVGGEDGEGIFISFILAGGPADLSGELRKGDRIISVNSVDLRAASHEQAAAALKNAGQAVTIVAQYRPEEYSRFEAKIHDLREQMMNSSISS
DLG1_2, Q12959, sequence (Q12959 314-412): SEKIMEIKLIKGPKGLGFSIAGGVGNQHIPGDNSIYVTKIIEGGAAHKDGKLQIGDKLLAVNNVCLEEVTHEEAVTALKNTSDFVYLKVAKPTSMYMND
FRMPD2_2, Q68DX3, sequence (Q68DX3 944-1038): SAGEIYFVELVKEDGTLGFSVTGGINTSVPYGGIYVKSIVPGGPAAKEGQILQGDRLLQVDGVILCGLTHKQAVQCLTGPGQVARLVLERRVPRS

B1: HPV31-E6, P17386 (peptide)
chain: SRRPRTETQV
pKd (PTPN13_1, Q12923; [1]): below the threshold
pKd (DLG4_3, P78352; [1]): 5.1
pKd (SNTB1, Q13884; [1]): 4.15
pKd (FRMPD2_2, Q68DX3; [1]): below the threshold
pKd (ARHGAP21, Q5T5U3; [1]): below the threshold
pKd (GRID2IP_1, A4D2P6; [1]): below the threshold
pKd (MPDZ_5, O75970; [1]): below the threshold
pKd (Inadl_10, Q8NI35; [1]): below the threshold
pKd (PARD3B_1, Q8TEW8; [1]): below the threshold
pKd (GRIP2_3, Q9C0E4; [1]): below the threshold
pKd (DLG2_3, Q15700; [1]): 5.1
pKd (LRRC7, Q96NW7; [1]): below the threshold
pKd (DLG2_2, Q15700; [1]): 5.37
pKd (GRIP2_7, Q9C0E4; [1]): below the threshold
pKd (GOPC, Q9HD26; [1]): below the threshold
pKd (SIPA1L2, Q9P2F8; [1]): below the threshold
pKd (DLG1_3, Q12959; [1]): 4.6
pKd (LIN7A, O14910; [1]): 3.51
pKd (SYNJ2BP, P57105; [1]): 5.41
pKd (RAPGEF6, Q8TEU7; [1]): below the threshold
pKd (GIPC2, Q8TF65; [1]): below the threshold
pKd (DLG1_2, Q12959; [1]): 5.79
pKd (HTRA1, Q92743; [1]): below the threshold
pKd (PCLO, Q9Y6V0; [1]): below the threshold
pKd (PDZD7_3, Q9H5P4; [1]): 3.71

B2: TAGAP, Q8N103 (peptide)
chain: QFQYAKESYI
pKd (PTPN13_1, Q12923; [1]): below the threshold
pKd (DLG4_3, P78352; [1]): 3.55
pKd (SNTB1, Q13884; [1]): 4.92
pKd (FRMPD2_2, Q68DX3; [1]): 4.33
pKd (ARHGAP21, Q5T5U3; [1]): below the threshold
pKd (GRID2IP_1, A4D2P6; [1]): below the threshold
pKd (MPDZ_5, O75970; [1]): below the threshold
pKd (Inadl_10, Q8NI35; [1]): below the threshold
pKd (PARD3B_1, Q8TEW8; [1]): 3.98
pKd (GRIP2_3, Q9C0E4; [1]): below the threshold
pKd (DLG2_3, Q15700; [1]): 3.95
pKd (LRRC7, Q96NW7; [1]): below the threshold
pKd (DLG2_2, Q15700; [1]): 4.16
pKd (GRIP2_7, Q9C0E4; [1]): below the threshold
pKd (GOPC, Q9HD26; [1]): 3.95
pKd (SIPA1L2, Q9P2F8; [1]): below the threshold
pKd (DLG1_3, Q12959; [1]): 4.05
pKd (LIN7A, O14910; [1]): below the threshold
pKd (SYNJ2BP, P57105; [1]): 4.71
pKd (RAPGEF6, Q8TEU7; [1]): below the threshold
pKd (GIPC2, Q8TF65; [1]): 3.78
pKd (DLG1_2, Q12959; [1]): 4.85
pKd (HTRA1, Q92743; [1]): 4.03
pKd (PCLO, Q9Y6V0; [1]): below the threshold
pKd (PDZD7_3, Q9H5P4; [1]): 4.87

B3: PRKCA, P17252 (peptide)
chain: FVHPILQSAV
pKd (PTPN13_1, Q12923; [2]): below the threshold
pKd (DLG4_3, P78352; [2]): 3.88
pKd (SNTB1, Q13884; [2]): 4.32
pKd (FRMPD2_2, Q68DX3; [2]): 3.73
pKd (ARHGAP21, Q5T5U3; [2]): 3.84
pKd (GRID2IP_1, A4D2P6; [2]): below the threshold
pKd (MPDZ_5, O75970; [2]): below the threshold
pKd (Inadl_10, Q8NI35; [2]): below the threshold
pKd (PARD3B_1, Q8TEW8; [2]): below the threshold
pKd (GRIP2_3, Q9C0E4; [2]): below the threshold
pKd (DLG2_3, Q15700; [2]): 3.74
pKd (LRRC7, Q96NW7; [2]): 3.58
pKd (DLG2_2, Q15700; [2]): 4.04
pKd (GRIP2_7, Q9C0E4; [2]): below the threshold
pKd (GOPC, Q9HD26; [2]): 4
pKd (SIPA1L2, Q9P2F8; [2]): below the threshold
pKd (DLG1_3, Q12959; [2]): 3.85
pKd (LIN7A, O14910; [2]): below the threshold
pKd (SYNJ2BP, P57105; [2]): 5.31
pKd (RAPGEF6, Q8TEU7; [2]): below the threshold
pKd (GIPC2, Q8TF65; [2]): below the threshold
pKd (DLG1_2, Q12959; [2]): 4.52
pKd (HTRA1, Q92743; [2]): below the threshold
pKd (PCLO, Q9Y6V0; [2]): below the threshold
pKd (PDZD7_3, Q9H5P4; [2]): 4.55

B4: AGMAT, Q9BSE5 (peptide)
chain: LCALPKVTTV
pKd (PTPN13_1, Q12923; [1]): below the threshold
pKd (DLG4_3, P78352; [1]): 4.23
pKd (SNTB1, Q13884; [1]): 4.73
pKd (FRMPD2_2, Q68DX3; [1]): 3.72
pKd (ARHGAP21, Q5T5U3; [1]): below the threshold
pKd (GRID2IP_1, A4D2P6; [1]): below the threshold
pKd (MPDZ_5, O75970; [1]): below the threshold
pKd (Inadl_10, Q8NI35; [1]): below the threshold
pKd (PARD3B_1, Q8TEW8; [1]): below the threshold
pKd (GRIP2_3, Q9C0E4; [1]): below the threshold
pKd (DLG2_3, Q15700; [1]): 4.64
pKd (LRRC7, Q96NW7; [1]): 3.63
pKd (DLG2_2, Q15700; [1]): 5.35
pKd (GRIP2_7, Q9C0E4; [1]): below the threshold
pKd (GOPC, Q9HD26; [1]): 3.78
pKd (SIPA1L2, Q9P2F8; [1]): below the threshold
pKd (DLG1_3, Q12959; [1]): 4.77
pKd (LIN7A, O14910; [1]): 3.64
pKd (SYNJ2BP, P57105; [1]): 4.35
pKd (RAPGEF6, Q8TEU7; [1]): 3.63
pKd (GIPC2, Q8TF65; [1]): below the threshold
pKd (DLG1_2, Q12959; [1]): 5.87
pKd (HTRA1, Q92743; [1]): 4.75
pKd (PCLO, Q9Y6V0; [1]): below the threshold
pKd (PDZD7_3, Q9H5P4; [1]): 5.41
